Substrate in series [1]: [N-]=[N+]=C1C=C(/C=C/C=C/C(=O)O)C=CC1=O
Kind of series: purified protein. It is filed as biochemical, Streptomyces sp. As to conditions: 800 µM NADPH, 3-DAA made in situ by CmaA6, 25-400 µM, pH 8.0.

Substrate in series [2]: NC(=O)C1=CN([C@@H]2O[C@H](COP(=O)(O)OP(=O)(O)OC[C@H]3O[C@@H](n4cnc5c(N)ncnc54)[C@H](OP(=O)(O)O)[C@@H]3O)[C@@H](O)[C@H]2O)C=CC1
Kind of series: purified protein. The series is classed as biochemical, Streptomyces sp. As to conditions: 3-DAA made in situ by CmaA6 from 1.0 mM 3-AAA, pH 8.0, varied: cofactor.

B1: AvaA7 (Streptomyces sp.) (protein)
chain: MRVLVAGATGVIGHPLVGALRARGHNVSALVRDASRAPEADRVVVADALDREAVLSAVSAARPEVVVHQLTALRLLRDDPPEAFAQTARLRTEGTAHLVEAARAAGARRLVAQSIAFAAAPQGPPVLDEDAPLYVDAPDPGWAATVRAVAELERLVASSDLAGLVLRYGTLYGPGTGYARDGGTALRVLAGKLPLPEGGAGVTSFLHVDDAVGAAVAAVESEATGCLHVTDDEPAPAAQWLPHYARTLGAPPPRTLPAALAPRLLGWFMTHQLTTARGAANDRARTALGWKPTHPSWRDGLGRE
notes: recombinant
For orientation: Km means the concentration of substrate that gives half-maximal velocity. The term kcat denotes the maximal rate divided by the concentration of active sites. What is called kcat/Km is the turnover number divided by the Michaelis constant. On to B1, for which, in the series “purified protein [1]”, the Km is listed as 152 ± 31 µM, the kcat came out at 10.2 ± 0.917 s⁻¹ and the kcat/Km amounted to 66700 M⁻¹ s⁻¹. In the series “purified protein [2]”, the Km worked out at 138 ± 10 µM, the kcat was 4.433 ± 0.0333 s⁻¹ and the kcat/Km turned out to be 31700 M⁻¹ s⁻¹.
